Usually EC50 stands for the concentration giving half of the maximal effect.

The assay deals with T1, recombinant CD16A ectodomain (human, UniProt P08637 17-208).
T1 construct: extracellular domain
The assay can be described thus: ELISA, CD16A ectodomain coated at 50 ng/well, sdA detected with anti-Flag-HRP. In general terms: ELISA stands for enzyme-linked immunosorbent assay.

T1 sequence (P08637 17-208): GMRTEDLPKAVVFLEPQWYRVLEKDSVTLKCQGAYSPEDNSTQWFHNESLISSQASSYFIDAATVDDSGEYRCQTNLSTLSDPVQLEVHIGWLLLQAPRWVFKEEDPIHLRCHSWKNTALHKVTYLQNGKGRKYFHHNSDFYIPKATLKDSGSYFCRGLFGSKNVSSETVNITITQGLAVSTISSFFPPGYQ

B1: sdA2 (human single domain antibody targeting CD16A) (VHH)
VHH: EVQLVESGGGLVQPGGSLRLSCAASGFTFSSYGMSWVRQAPGKGLEWIGEVNHSGGSTNYNPSLKGSFVISRDNSKNTLYLQMNSLAEDTAVYYCARVGSFDFWGQGTLVTVSS
notes: Human VH single domain; His and Flag tags are implied (Ni-NTA, anti-Flag-HRP); also called E11; El 1
For the molecule B1, the EC50 came to 0.3 nM.

B2: sdA1 (human single domain antibody targeting CD16A) (VHH)
VHH: EVQLVESGGGLVQPGGSLRLSCAASGFTFSNYGMSWVRQAPGKGLEWIGSIYYSGGSTNYNPSLKGSLVISRDNSKNTLYLQMNSLAEDTATYYCARESIDYWGQGTLVTVSS
notes: Human VH single domain (VH3-23 scaffold), not camelid; Purified by Ni-NTA and detected with anti-Flag-HRP, so His and Flag tags were present; also called sdAl; D6
On to B2, for which the EC50 was 0.1 nM.

The record behind these values is patent WO2018039626A1 (dated 2018).
